Two variants from PMC9478642 (2022) can be followed below.

The chains are these.
B1: human T-plastin, full length, wild type [human] / F-actin (filaments of α-actin) [not stated] (parent complex)
chain 1: MDEMATTQISKDELDELKEAFAKVDLNSNGFICDYELHELFKEANMPLPGYKVREIIQKLMLDGDRNKDGKISFDEFVYIFQEVKSSDIAKTFRKAINRKEGICALGGTSELSSEGTQHSYSEEEKYAFVNWINKALENDPDCRHVIPMNPNTDDLFKAVGDGIVLCKMINLSVPDTIDERAINKKKLTPFIIQENLNLALNSASAIGCHVVNIGAEDLRAGKPHLVLGLLWQIIKIGLFADIELSRNEALAALLRDGETLEELMKLSPEELLLRWANFHLENSGWQKINNFSADIKDSKAYFHLLNQIAPKGQKEGEPRIDINMSGFNETDDLKRAESMLQQADKLGCRQFVTPADVVSGNPKLNLAFVANLFNKYPALTKPENQDIDWTLLEGETREERTFRNWMNSLGVNPHVNHLYADLQDALVILQLYERIKVPVDWSKVNKPPYPKLGANMKKLENCNYAVELGKHPAKFSLVGIGGQDLNDGNQTLTLALVWQLMRRYTLNVLEDLGDGQKANDDIIVNWVNRTLSEAGKSTSIQSFKDKTISSSLAVVDLIDAIQPGCINYDLVKSGNLTEDDKHNNAKYAVSMARRIGARVYALPEDLVEVKPKMVMTVFACLMGRGMKRV
chain 2: not shown

This test covers variants of B1. As to the kind of experiment: sequential low-speed/high-speed F-actin cosedimentation assay; 5 μM actin, 2 μM plastin; read off a plot.
Consider chain 1 W390A, for which the response is ~0.37 proportion of T-plastin in low-speed pellet.

Take chain 1 R594A: the response is ~0.77 proportion of T-plastin in low-speed pellet.
